Reference: publication PMC314469, “Protein Interaction Networks by Proteome Peptide Scanning” (PLoS Biology, 2004)

Molecular target: T1, Boi1 SH3 (BOI1_YEAST), P38041
T1 chain: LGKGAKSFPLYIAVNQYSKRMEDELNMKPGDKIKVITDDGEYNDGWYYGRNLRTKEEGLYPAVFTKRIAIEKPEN
Assay: SPOT array

Row | Binder | normalised SPOT signal, Boehringer light units (BLU); mean over the file's lines of this peptide
1 | DSLPFAPLRKVYEL [YBR056W 139-152] | 61.9
2 | DSGPQRPKRTRAKG [YDL106C 73-86] | 460
3 | DVLPAGPVRSLEGA [YCR102C 122-135] | 24.6
4 | DQKPLVPIRIYGAI [YPR023C 316-329] | 181
5 | DSIPSRPQRRKSVL [YMR221C 258-271] | 1520
6 | EAAPQLPSRSSAAP [YCR088W 505-518] | 102
7 | DSIPVDPEKVVAIV [YBL015W 216-229] | 50
8 | DYLPQHPHRTSSLP [YDR103W 109-122] | 17.6
9 | DVPPQLPTRTKSGE [YOR042W 337-350] | 76.3
10 | DVIPKKPLKSAADK [YOL055C 314-327] | 142
11 | DSLPKLPFRSWGQP [YBR132C 490-503] | 179
12 | DVYPHEPAKNGEGS [YER081W 311-324] | 98.3
13 | DRPPDVPRKIIVGR [YBL067C 301-314] | 96.5
14 | DSDPNTPKKLSSPR [YNL238W 661-674] | 108
15 | DSPPQSPRRSSNSS [YKL185W 464-477] | 309
16 | DSIPLEPKKAKHLM [YHR118C 82-95] | 389
17 | EANPDNPKKLDLKA [YER166W 783-796] | 79.1
18 | DYQPLSPPRELDPD [YAR014C 249-262] | 122
19 | DYNPPPPSRNSPIR [YJL204C 669-682] | 194
20 | DVLPAGPVRSLEGV [YLR460C 130-143] | 28.2
21 | DYLPPVPEKNAGKQ [YDR322W 274-287] | 47.4
22 | DYNPTIPPRSKDRP [YOL070C 274-287] | 35500

Molecular target: T2, Boi2 SH3 (BOI2_YEAST), P39969
T2 chain: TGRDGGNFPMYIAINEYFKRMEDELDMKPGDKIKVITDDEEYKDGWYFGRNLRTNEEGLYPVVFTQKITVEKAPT
Assay: SPOT array

Row | Binder | normalised SPOT signal, Boehringer light units (BLU); mean over the file's lines of this peptide
23 | DSLPFAPLRKVYEL [YBR056W 139-152] | 34.7
24 | DSGPQRPKRTRAKG [YDL106C 73-86] | 91.1
25 | DVLPAGPVRSLEGA [YCR102C 122-135] | 45.9
26 | DQKPLVPIRIYGAI [YPR023C 316-329] | 88.8
27 | DSIPSRPQRRKSVL [YMR221C 258-271] | 334
28 | EAAPQLPSRSSAAP [YCR088W 505-518] | 20.3
29 | DSIPVDPEKVVAIV [YBL015W 216-229] | 22.2
30 | DYLPQHPHRTSSLP [YDR103W 109-122] | 33.4
31 | DVPPQLPTRTKSGE [YOR042W 337-350] | 61.9
32 | DVIPKKPLKSAADK [YOL055C 314-327] | 35.9
33 | DSLPKLPFRSWGQP [YBR132C 490-503] | 25.7
34 | DVYPHEPAKNGEGS [YER081W 311-324] | 37.8
35 | DRPPDVPRKIIVGR [YBL067C 301-314] | 62.3
36 | DSDPNTPKKLSSPR [YNL238W 661-674] | 22.9
37 | DSPPQSPRRSSNSS [YKL185W 464-477] | 15.6
38 | DSIPLEPKKAKHLM [YHR118C 82-95] | 26.5
39 | EANPDNPKKLDLKA [YER166W 783-796] | 7.6
40 | DYQPLSPPRELDPD [YAR014C 249-262] | 8.8
41 | DYNPPPPSRNSPIR [YJL204C 669-682] | 31.1
42 | DVLPAGPVRSLEGV [YLR460C 130-143] | 44
43 | DYLPPVPEKNAGKQ [YDR322W 274-287] | 91.7
44 | DYNPTIPPRSKDRP [YOL070C 274-287] | 11300

Molecular target: T3, Rvs167 SH3 (RV167_YEAST), P39743
T3 chain: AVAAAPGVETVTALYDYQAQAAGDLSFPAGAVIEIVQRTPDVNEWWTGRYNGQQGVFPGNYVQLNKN
Assay: SPOT array

Row | Binder | normalised SPOT signal, Boehringer light units (BLU); mean over the file's lines of this peptide
45 | DSLPFAPLRKVYEL [YBR056W 139-152] | 156
46 | DSGPQRPKRTRAKG [YDL106C 73-86] | 218
47 | DVLPAGPVRSLEGA [YCR102C 122-135] | 0
48 | DQKPLVPIRIYGAI [YPR023C 316-329] | 114
49 | DSIPSRPQRRKSVL [YMR221C 258-271] | 651
50 | EAAPQLPSRSSAAP [YCR088W 505-518] | 23100
51 | DSIPVDPEKVVAIV [YBL015W 216-229] | 37.9
52 | DYLPQHPHRTSSLP [YDR103W 109-122] | 109
53 | DVPPQLPTRTKSGE [YOR042W 337-350] | 23600
54 | DVIPKKPLKSAADK [YOL055C 314-327] | 9.7
55 | DSLPKLPFRSWGQP [YBR132C 490-503] | 16100
56 | DVYPHEPAKNGEGS [YER081W 311-324] | 44.3
57 | DRPPDVPRKIIVGR [YBL067C 301-314] | 92.5
58 | DSDPNTPKKLSSPR [YNL238W 661-674] | 0
59 | DSPPQSPRRSSNSS [YKL185W 464-477] | 41.3
60 | DSIPLEPKKAKHLM [YHR118C 82-95] | 33.7
61 | EANPDNPKKLDLKA [YER166W 783-796] | 45.6
62 | DYQPLSPPRELDPD [YAR014C 249-262] | 322
63 | DYNPPPPSRNSPIR [YJL204C 669-682] | 9.9
64 | DVLPAGPVRSLEGV [YLR460C 130-143] | 32.7
65 | DYLPPVPEKNAGKQ [YDR322W 274-287] | 42.3
66 | DYNPTIPPRSKDRP [YOL070C 274-287] | 3120

Molecular target: T4, Yfr024 SH3 (LSB3_YEAST), P43603
T4 chain: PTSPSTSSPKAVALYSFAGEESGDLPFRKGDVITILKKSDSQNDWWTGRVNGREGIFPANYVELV
Assay: SPOT array

Row | Binder | normalised SPOT signal, Boehringer light units (BLU); mean over the file's lines of this peptide
67 | DSLPFAPLRKVYEL [YBR056W 139-152] | 322
68 | DSGPQRPKRTRAKG [YDL106C 73-86] | 38900
69 | DVLPAGPVRSLEGA [YCR102C 122-135] | 137
70 | DQKPLVPIRIYGAI [YPR023C 316-329] | 5150
71 | DSIPSRPQRRKSVL [YMR221C 258-271] | 27600
72 | EAAPQLPSRSSAAP [YCR088W 505-518] | 55000
73 | DSIPVDPEKVVAIV [YBL015W 216-229] | 0
74 | DYLPQHPHRTSSLP [YDR103W 109-122] | 206
75 | DVPPQLPTRTKSGE [YOR042W 337-350] | 27900
76 | DVIPKKPLKSAADK [YOL055C 314-327] | 359
77 | DSLPKLPFRSWGQP [YBR132C 490-503] | 39100
78 | DVYPHEPAKNGEGS [YER081W 311-324] | 125
79 | DRPPDVPRKIIVGR [YBL067C 301-314] | 2970
80 | DSDPNTPKKLSSPR [YNL238W 661-674] | 28.1
81 | DSPPQSPRRSSNSS [YKL185W 464-477] | 15900
82 | DSIPLEPKKAKHLM [YHR118C 82-95] | 141
83 | EANPDNPKKLDLKA [YER166W 783-796] | 257
84 | DYQPLSPPRELDPD [YAR014C 249-262] | 506
85 | DYNPPPPSRNSPIR [YJL204C 669-682] | 874
86 | DVLPAGPVRSLEGV [YLR460C 130-143] | 4
87 | DYLPPVPEKNAGKQ [YDR322W 274-287] | 681
88 | DYNPTIPPRSKDRP [YOL070C 274-287] | 6750

Molecular target: T5, Yhr016c SH3 (YSC84_YEAST), P32793
T5 chain: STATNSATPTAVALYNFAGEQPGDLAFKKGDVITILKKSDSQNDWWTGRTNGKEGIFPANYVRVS
Assay: SPOT array

Row | Binder | normalised SPOT signal, Boehringer light units (BLU); mean over the file's lines of this peptide
89 | DSLPFAPLRKVYEL [YBR056W 139-152] | 200
90 | DSGPQRPKRTRAKG [YDL106C 73-86] | 4170
91 | DVLPAGPVRSLEGA [YCR102C 122-135] | 221
92 | DQKPLVPIRIYGAI [YPR023C 316-329] | 1280
93 | DSIPSRPQRRKSVL [YMR221C 258-271] | 4310
94 | EAAPQLPSRSSAAP [YCR088W 505-518] | 93000
95 | DSIPVDPEKVVAIV [YBL015W 216-229] | 0
96 | DYLPQHPHRTSSLP [YDR103W 109-122] | 172
97 | DVPPQLPTRTKSGE [YOR042W 337-350] | 73200
98 | DVIPKKPLKSAADK [YOL055C 314-327] | 37
99 | DSLPKLPFRSWGQP [YBR132C 490-503] | 60200
100 | DVYPHEPAKNGEGS [YER081W 311-324] | 223
101 | DRPPDVPRKIIVGR [YBL067C 301-314] | 358
102 | DSDPNTPKKLSSPR [YNL238W 661-674] | 156
103 | DSPPQSPRRSSNSS [YKL185W 464-477] | 3410
104 | DSIPLEPKKAKHLM [YHR118C 82-95] | 206
105 | EANPDNPKKLDLKA [YER166W 783-796] | 247
106 | DYQPLSPPRELDPD [YAR014C 249-262] | 313
107 | DYNPPPPSRNSPIR [YJL204C 669-682] | 323
108 | DVLPAGPVRSLEGV [YLR460C 130-143] | 0
109 | DYLPPVPEKNAGKQ [YDR322W 274-287] | 198
110 | DYNPTIPPRSKDRP [YOL070C 274-287] | 2400
